Measured values from patent US20050181476.

E-MyD88S, sequence (chain, as listed by the source): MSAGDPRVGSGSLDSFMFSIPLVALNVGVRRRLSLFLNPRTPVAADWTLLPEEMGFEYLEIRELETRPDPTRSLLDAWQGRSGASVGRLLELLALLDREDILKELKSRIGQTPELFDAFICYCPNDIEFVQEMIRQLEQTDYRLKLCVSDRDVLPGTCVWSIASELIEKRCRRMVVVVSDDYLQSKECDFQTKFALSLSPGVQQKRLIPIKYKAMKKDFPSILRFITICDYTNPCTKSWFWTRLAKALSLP

B1: IRAK-4 (protein)
chain: MNKPITPSTYVRCLNVGLIRKLSDFIDPQEGWKKLAVAIKKPSGDDRYNQFHIRRFEALLQTGKSPTSELLFDWGTTNCTVGDLVDLLIQNEFFAPASLLLPDAVPKTANTLPSKEAITVQQKQMPFCDKDRTLMTPVQNLEQSYMPPDSSSPENKSLEVSDTRFHSFSFYELKNVTNNFDERPISVGGNKMGEGGFGVVYKGYVNNTTVAVKKLAAMVDITTEELKQQFDQEIKVMAKCQHENLVELLGFSSDGDDLCLVYVYMPNGSLLDRLSCLDGTPPLSWHMRCKIAQGAANGINFLHENHHIHRDIKSANILLDEAFTAKISDFGLARASEKFAQTVMTSRIVGTTAYMAPEALRGEITPKSDIYSFGVVLLEIITGLPAVDEHREPQLLLDIKEEIEDEEKTIEDYIDKKMNDADSTSVEAMYSVASQCLHEKKNKRPDIKKVQQLLQEMTAS
in vitro phosphorylation of IRAK-1KD induced by IRAK-4 co-expression (E-MyD88S): in vitro phosphorylation of IRAK-1KD induced by IRAK-4 co-expression was completely inhibited when MyD88S was co-expressed
IRAK-4-induced IRAK-1KD phosphorylation (slower migrating species in SDS-PAGE; in vitro kinase assay) (MyD88): Addition of MyD88, however, significantly enhanced IRAK-4-induced IRAK-1KD phosphorylation
